# Results reported in PMC2199621 (The Journal of Cell Biology, 2001).
# B1: Nup358-4 (amino acids 2500–3224) (domain or fragment, UniProt P49792 2500-3224, looked up)
# chain: TSETTPKAVVSPPKFVFGSESVKSIFSSEKSKPFAFGNSSATGSLFGFSFNAPLKSNNSETSSVAQSGSESKVEPKKCELSKNSDIEQSSDSKVKNLFASFPTEESSINYTFKTPEKAKEKKKPEDSPSDDDVLIVYELTPTAEQKALATKLKLPPTFFCYKNRPDYVSEEEEDDEDFETAVKKLNGKLYLDGSEKCRPLEENTADNEKECIIVWEKKPTVEEKAKADTLKLPPTFFCGVCSDTDEDNGNGEDFQSELQKVQEAQKSQTEEITSTTDSVYTGGTEVMVPSFCKSEEPDSITKSISSPSVSSETMDKPVDLSTRKEIDTDSTSQGESKIVSFGFGSSTGLSFADLASSNSGDFAFGSKDKNFQWANTGAAVFGTQSVGTQSAGKVGEDEDGSDEEVVHNEDIHFEPIVSLPEVEVKSGEEDEEILFKERAKLYRWDRDVSQWKERGVGDIKILWHTMKNYYRILMRRDQVFKVCANHVITKTMELKPLNVSNNALVWTASDYADGEAKVEQLAVRFKTKEVADCFKKTFEECQQNLMKLQKGHVSLAAELSKETNPVVFFDVCADGEPLGRITMELFSNIVPRTAENFRALCTGEKGFGFKNSIFHRVIPDFVCQGGDITKHDGTGGQSIYGDKFEDENFDVKHTGPGLLSMANQGQNTNNSQFVITLKKAEHLDFKHVVFGFVKDGMDTVKKIESFGSPKGSVCRRITITECGQI
# B2: 6× his–tagged COOH-terminal segment of human Nup153 comprising amino acids 609–1475 (domain or fragment, UniProt P49790 609-1475, looked up)
# chain: LDILKSPGFASPKIDSVAAQPTATSPVVYTRPAISSFSSSGIGFGESLKAGSSWQCDTCLLQNKVTDNKCIACQAAKLSPRDTAKQTGIETPNKSGKTTLSASGTGFGDKFKPVIGTWDCDTCLVQNKPEAIKCVACETPKPGTCVKRALTLTVVSESAETMTASSSSCTVTTGTLGFGDKFKRPIGSWECSVCCVSNNAEDNKCVSCMSEKPGSSVPASSSSTVPVSLPSGGSLGLEKFKKPEGSWDCELCLVQNKADSTKCLACESAKPGTKSGFKGFDTSSSSSNSAASSSFKFGVSSSSSGPSQTLTSTGNFKFGDQGGFKIGVSSDSGSINPMSEGFKFSKPIGDFKFGVSSESKPEEVKKDSKNDNFKFGLSSGLSNPVSLTPFQFGVSNLGQEEKKEELPKSSSAGFSFGTGVINSTPAPANTIVTSENKSSFNLGTIETKSASVAPFTCKTSEAKKEEMPATKGGFSFGNVEPASLPSASVFVLGRTEEKQQEPVTSTSLVFGKKADNEEPKCQPVFSFGNSEQTKDENSSKSTFSFSMTKPSEKESEQPAKATFAFGAQTSTTADQGAAKPVFSFLNNSSSSSSTPATSAGGGIFGSSTSSSNPPVATFVFGQSSNPVSSSAFGNTAESSTSQSLLFSQDSKLATTSSTGTAVTPFVFGPGASSNNTTTSGFGFGATTTSSSAGSSFVFGTGPSAPSASPAFGANQTPTFGQSQGASQPNPPGFGSISSSTALFPTGSQPAPPTFGTVSSSSQPPVFGQQPSQSAFGSGTTPNSSSAFQFGSSTTNFNFTNNSPSGVFTFGANSSTPAASAQPSGSGGFPFNQSPAAFTVGSNGKNVFSSSGTSFSGRKIKTAVRRRK
# B3: GST-tagged Nup62 (natural protein, UniProt P17955 1-525, looked up)
# chain: MSGFNFGGTGAPAGGFTFGTAKTATTTPATGFSFSASGTGTGGFNFGTPSQPAATTPSTSLFSLATQTSTTQTPGFNFGTTPASGGTGFSLGISTPKLSLSSTAATPATANTGSFGLGSSTLTNAISGASTSSQGTAPTGFVFGSSTTSAPSTGTTGFSFTSGSASQPGASGFNIGSVGSLAQPTALSGSPFTPATLATTTAGATQPAAATPTAATTSAGSTLFASIAAAPASSSTTVLSLSAPATTAATPTAGTLGFSLKAPGAAPGASTTSTTTTTTTTTTTASTSSSTTTTGFALSLKPLVPAGPSSVAATALPASSTAVGTTTGPAMTYAQLESLINKWSLELEDQERHFLQQATQVNAWDRTLIENGEKITSLHREVEKVKLDQKRLDQELDFILSQQKELEDLLSPLEESVKEQSGTIYLQHADEEREKTYKLAENIDAQLKRMAQDLKDIIEHLNMAGGPADTSDPLQQICKILNAHMDSLQWVDQSSALLQRRVEEASRVCESRRKEQERSLRIAFD
# B4: GST-tagged Nup54 (natural protein, UniProt P70582 1-510, looked up)
# chain: MAFNFGAPSGTSGTSTATAAPAGGFGGFGTTTTTAGSAFSFSAPTNTGSTGLLGGTQNKGFGFGTGFGTSTGTGTGLGTGLGTGLGFGGFNTQQQQQQQQTSLGGLFSQPAQAPAQSNQLINTASALSAPTLLGDERDAILAKWNQLQAFWGTGKGYFNNNIPPVEFTQENPFCRFKAVGYSCMPNNKDEDGLVVLIFNKKETDIRSQQQQLVESLHKVLGGNQTLTVNVEGIKTLPDDQTEVVIYIVERSPNGTSRRVPATTLYAHFEQANIKTQLQQLGVTLSMTRTELSPAQIKQLLQNPPAGVDPIIWEQAKVDNPDSEKLIPVPMVGFKELLRRLKVQDQMTKQHQTRLDIISEDISELQKNQTTTMAKIAQYKRKLMDLSHRTLQVLIKQEIQRKSGYAIQAEEEQLRVQLDTIQGELNAPTQFKGRLNELMSQIRMQNHFGAVKSEEKYYIDADLLREIKQHLKQQQEGLSHLISIIKDDLEDIKLVEHGLNETIHSRGGVFS
# B5: GST-tagged Nup58 (natural protein, UniProt P70581 1-585, looked up)
# chain: MATGFSFGSGTLGSTTVAPGGTGTGSGFSFGASSTPSVGLNFGTLGSSATPASTSTSASGFGTGLFGSKPGTGFTLGGTSAGTTATTSASTTGFSLGFSKPAASATPFALPVTSTTASGLTLSSALTSAPAASTGFTLNNLGATPATTTAASTGLSLGGALAGLGGSLFQSGNTATSGLGQNALSLSLGTATPTSAASSEGLGGIDFSTSSDKKSDKTGTRPEDSKALKDENLPPVICQDVENLQKFVKEQKQVQEEISRMSSKAMLKVQEDIKALKQLLSLAASGLQRNTLNIDKLKLETAQELKNAEIALRTQKTPPGLQHENTAPADYFRVLVQQFEVQLQQYRQQIEELENHLATQANNSHITPQDLSMAMQKIYQTFVALAAQLQSIHENVKVLKEQYLSYRKMFLGDAGDVFEARRTEAKKWQNAPRVTTGPTPFSTMPNAAAVAMAATLTQQQQPATGPQPSLGVSFGTPFGSGIGTGLQSSGLGSSNLGGFGTSSGFGCGTTGASTFGFGTTDKPSGSLSAGFGSSSTSGFNFSNPGITASAGLTFGVSNPASAGFGTGGQLLQLKRPPAGNKRGKR
# Biological target: 6× his-S–tagged importin β (UniProt Q14974 1-876)
# Experiment: ELISA
# 6× his-S–tagged importin β, sequence (Q14974 whole entry): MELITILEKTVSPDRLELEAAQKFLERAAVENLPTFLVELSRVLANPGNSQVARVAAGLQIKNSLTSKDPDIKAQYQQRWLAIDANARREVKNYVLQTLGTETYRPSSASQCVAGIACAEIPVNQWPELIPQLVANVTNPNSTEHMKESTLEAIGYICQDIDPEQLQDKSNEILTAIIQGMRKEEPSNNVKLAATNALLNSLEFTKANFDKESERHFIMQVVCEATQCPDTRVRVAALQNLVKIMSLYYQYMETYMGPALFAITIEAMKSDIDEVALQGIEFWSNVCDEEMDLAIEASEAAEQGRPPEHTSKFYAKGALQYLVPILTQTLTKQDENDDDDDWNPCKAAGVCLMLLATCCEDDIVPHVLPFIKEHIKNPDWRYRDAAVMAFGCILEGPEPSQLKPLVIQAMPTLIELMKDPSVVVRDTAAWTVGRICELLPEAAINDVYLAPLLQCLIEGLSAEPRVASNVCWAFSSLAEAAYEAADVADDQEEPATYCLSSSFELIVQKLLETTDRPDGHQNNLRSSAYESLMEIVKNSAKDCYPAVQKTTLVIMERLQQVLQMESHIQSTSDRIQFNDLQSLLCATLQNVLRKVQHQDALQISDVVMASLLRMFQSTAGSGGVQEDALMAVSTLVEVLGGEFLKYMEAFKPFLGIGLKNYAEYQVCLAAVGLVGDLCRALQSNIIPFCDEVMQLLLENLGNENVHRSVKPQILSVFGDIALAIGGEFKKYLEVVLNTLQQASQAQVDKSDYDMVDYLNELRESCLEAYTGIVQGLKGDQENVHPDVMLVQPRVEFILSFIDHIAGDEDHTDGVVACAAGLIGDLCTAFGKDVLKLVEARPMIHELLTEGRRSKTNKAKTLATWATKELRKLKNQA
row,Binder,Kd [nM]
1,B1,225 ± 14.4
2,B2,9 ± 2.5
3,B3,100 ± 8
4,B4,112 ± 6.5
5,B5,101 ± 2

# Biological target: importin β–IBB domain complex (UniProt Q14974 1-876; P52292 2-60)
# Experiment: ELISA
# importin β–IBB domain complex, sequence (Q14974 whole entry, chain 1 of 2, other chains not shown, the tested form may be a part): as the sequence (Q14974 whole entry) above
row,Binder,Kd [nM]
1,B1,220 ± 16
2,B2,9.4 ± 3
3,B3,105 ± 6
4,B4,108 ± 8.5
5,B5,107 ± 8
